{
  "source": "paper PMC7300195",
  "about": "(2020)",
  "binders": {"B1": {"name": "m102.4 monoclonal antibody (HeV G-specific antibody), human IgG1/kappa (antibody, V domains shown)", "VH": "EVQVIQSGADVKKPGSSVKVSCKSSGGTFSKYAINWVRQAPGQGLEWMGGIIPILGIANYAQKFQGRVTITTDESTSTAYMELSSLRSEDTAVYYCARGWGREQLAPHPSQYYYYYYGMDVWGQGTTVTVSS", "VL": "EIVMTQSPGTLSLAPGERATLSCWASQSVRNNYLAWYQQKPGQAPRLVIYNGSTRATGIPDRFSGSGSGTDFTLTISRLDPEDFAVYYCQQYGNSRRVTFGGGTKVEIK"}},
  "assay_in_all_cases": "BLI",
  "key": {"Stalk G": {"molecular_target": "Stalk G"}, "Mono G": {"molecular_target": "Mono G"}, "[1]": {"molecular_target": "hexameric NiV G: two G ectodomain headgroups linked by a foldon trimerization domain via short glycine linkers (Nipah virus (Malaysia) | )"}, "[2]": {"molecular_target": "NiV G trimer: NiV G head domain residues 172-602 coupled to an N-terminal foldon domain ( | Nipah virus (Malaysia), UniProt Q9IH62 172-602)"}, "[3]": {"molecular_target": "NiV G ferritin 24-mer nanoparticle: NiV G ectodomain residues 172-602 linked to the C-terminus of fe (Nipah virus (Malaysia), UniProt Q9IH62 172-602)"}},
  "data": [
    {"binder": "B1", "values": [
      {"measurement": "Kd", "setting": "Stalk G", "result": 112, "unit": "nM"},
      {"measurement": "koff", "setting": "Stalk G", "result": 0.0849, "unit": "s⁻¹"},
      {"measurement": "Kd", "setting": "Mono G", "result": 402, "unit": "nM"},
      {"measurement": "koff", "setting": "Mono G", "result": 0.131, "unit": "s⁻¹"},
      {"measurement": "Kd", "setting": "[1]", "result": 86.2, "unit": "nM"},
      {"measurement": "koff", "setting": "[1]", "result": 0.0596, "unit": "s⁻¹"},
      {"measurement": "Kd", "setting": "[2]", "result": 153, "unit": "nM"},
      {"measurement": "koff", "setting": "[2]", "result": 0.0857, "unit": "s⁻¹"},
      {"measurement": "Kd", "setting": "[3]", "result": 17.8, "unit": "nM"},
      {"measurement": "koff", "setting": "[3]", "result": 0.0279, "unit": "s⁻¹"}
    ]}
  ]
}
